From patent US20250090699A1, “FAP TARGETING CYCLIC PEPTIDES AND CONJUGATES THEREOF” (Novartis AG, priority 2023, published 2025)
Where a name gives a salt, the structure may show the parent alone. Starred links: 1 amine or outer side, 2 acyl side, 3 side chain; linkers in the order of their positions; H or OH if unused. Non-standard residues stand in square brackets, D forms with d. Residues, ends and D or L forms follow the SMILES beside them. Groups on a side chain read outwards from the residue. *: point of attachment. F(4amPEG2NHDOTA-Ga) = gallium complex of (S)-2,2',2''-(10-(1-(4-(2-amino-2-carboxyethyl)phenyl)-3,12-dioxo-5,8-dioxa-2,11-diazatridecan-13-yl)-1,4,7,10-tetraazacyclododecane-1,4,7-triyl)triacetic acid (Phe with 4-aminomethyl-PEG2-DOTA-Ga), O=C([O-])CN1CCN(CC(=O)[O-])CCN(CC(=O)NCCOCCOCC(=O)NCc2ccc(C[C@H](N[*:1])C(=O)[*:2])cc2)CCN(CC(=O)[O-])CC1.[Ga+3]; F(4amPEG2NHNODAGA-Ga) = gallium complex of 2,2'-(7-(1-(4-((S)-2-amino-2-carboxyethyl)phenyl)-15-carboxy-3,12-dioxo-5,8-dioxa-2,11-diazapentadecan-15-yl)-1,4,7-triazonane-1,4-diyl)diacetic acid (Phe with 4-aminomethyl-PEG2-NODAGA-Ga), O=C([O-])CN1CCN(CC(=O)[O-])CCN(C(CCC(=O)NCCOCCOCC(=O)NCc2ccc(C[C@H](N[*:1])C(=O)[*:2])cc2)C(=O)[O-])CC1.[Ga+3]; F4(amBAlaDOTALu) = lutetium complex of (S)-2,2',2''-(10-(2-((3-((4-(2-amino-2-carboxyethyl)benzyl)amino)-3-oxopropyl)amino)-2-oxoethyl)-1,4,7,10-tetraazacyclododecane-1,4,7-triyl)triacetic acid (Phe with 4-aminomethyl-βAla-DOTA-Lu), O=C([O-])CN1CCN(CC(=O)[O-])CCN(CC(=O)NCCC(=O)NCc2ccc(C[C@H](N[*:1])C(=O)[*:2])cc2)CCN(CC(=O)[O-])CC1.[Lu+3]; F(4OEtNHDOTA-Lu) = lutetium complex of (S)-2,2',2''-(10-(2-((2-(4-(2-amino-2-carboxyethyl)phenoxy)ethyl)amino)-2-oxoethyl)-1,4,7,10-tetraazacyclododecane-1,4,7-triyl)triacetic acid (Phe with 4-O-ethylamino-DOTA-Lu), O=C([O-])CN1CCN(CC(=O)[O-])CCN(CC(=O)NCCOc2ccc(C[C@H](N[*:1])C(=O)[*:2])cc2)CCN(CC(=O)[O-])CC1.[Lu+3]; K(COpipzaa) = N6-(4-(carboxymethyl)piperazine-1-carbonyl)-L-lysine, O=C(NCCCC[C@H](N[*:1])C(=O)[*:2])N1CCN(CC(=O)[*:3])CC1; COpipzaa = 4-(carboxymethyl)piperazine-1-carbonyl, O=C(O)CN1CCN(C(=O)*)CC1; hS(Pr) = O-propyl-L-homoserine, CCCOCC[C@H](N[*:1])C(=O)[*:2]; Trp(7-F) = N[C@@H](Cc1c[nH]c2c(F)cccc12)C(=O)O; Piperazinyl(4-CH2COOH) = O=C(O)CN1CCN(*)CC1; AEF = NCCOc1ccc(C[C@H](N)C(=O)O)cc1; NMeF = CN[C@@H](Cc1ccccc1)C(=O)O; Ahp(2) = CCCCC[C@H](N)C(=O)O; hSer = N[C@@H](CCO)C(=O)O; Orn = NCCC[C@H](N)C(=O)O; CO = O=C([*:1])[*:2]

Key:
[1] = target: T1, mouse FAP (Mus musculus, UniProt P97321); test: Surface plasmon resonance (SPR) for peptide affinity, mouse FAP; type: binding
T1 construct: biotinylated His, Avi tag, mouse FAP (26-761, FAP-M82Q5); His; Avi tag (biotinylated); purchased AcroBiosystems FAP-M82Q5
T1 sequence (P97321 26-761): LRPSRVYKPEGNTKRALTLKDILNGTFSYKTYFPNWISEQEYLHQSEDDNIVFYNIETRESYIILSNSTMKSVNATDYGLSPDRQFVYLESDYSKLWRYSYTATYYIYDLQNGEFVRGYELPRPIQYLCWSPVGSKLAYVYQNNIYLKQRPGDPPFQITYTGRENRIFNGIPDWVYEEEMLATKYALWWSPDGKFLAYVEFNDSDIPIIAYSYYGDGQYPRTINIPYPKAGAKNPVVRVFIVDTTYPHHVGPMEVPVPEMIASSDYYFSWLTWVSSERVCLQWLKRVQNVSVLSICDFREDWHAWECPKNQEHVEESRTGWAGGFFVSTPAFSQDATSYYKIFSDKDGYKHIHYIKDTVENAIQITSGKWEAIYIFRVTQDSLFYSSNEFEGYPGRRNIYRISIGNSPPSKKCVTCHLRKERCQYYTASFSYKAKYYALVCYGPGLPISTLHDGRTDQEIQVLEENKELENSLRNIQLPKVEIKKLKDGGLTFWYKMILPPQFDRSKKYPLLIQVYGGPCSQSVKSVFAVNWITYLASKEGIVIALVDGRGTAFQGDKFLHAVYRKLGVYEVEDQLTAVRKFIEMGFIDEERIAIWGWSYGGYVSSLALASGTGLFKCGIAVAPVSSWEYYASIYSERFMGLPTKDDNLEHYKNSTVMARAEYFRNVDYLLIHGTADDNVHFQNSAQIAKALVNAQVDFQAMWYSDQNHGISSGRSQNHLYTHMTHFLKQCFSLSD
Summary of the method: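 KD values come from a 1:1 kinetic fit of single-cycle SPR data: 8 peptide concentrations, 25 °C, 30 μL/min, HEPES-buffered saline pH 7.6 with 2% DMSO. Targets were His/Avi-tagged human (26-760) or mouse (26-761) FAP, amine-coupled to CM5 or held on a CAPture chip.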

[2] = target: T1, mouse FAP; test: Enzymatic FAP competition assay (Z-Gly-Pro-AMC fluorescence), mouse FAP; type: biochemical; conditions: read-out: m. FAP, Enz., IC50
Summary of the method: (§1)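 IC50 values come from curve fitting of duplicate % inhibition data on AMC fluorescence (ex 380, em 460 nm) after 4 h at 22-24° C with 50 μM Z-Gly-Pro-AMC. Beforehand, peptides up to 1 μM (14 levels) sat 24 h with 0.01 nM human (26-760) or mouse (26-761) tagged FAP in phosphate buffer pH 7.5, NaCl, Tween20, 1% DMSO.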

[3] = target: T2, human FAP (Homo sapiens, UniProt Q12884); test: Enzymatic FAP competition assay (Z-Gly-Pro-AMC fluorescence), human FAP; type: biochemical; conditions: read-out: h. FAP, Enz., IC50
T2 construct: the biotinylated His, Avi tag, human FAP (26-760, FAP-H82Q6); His; Avi tag (biotinylated); purchased AcroBiosystems FAP-H82Q6
T2 sequence (Q12884 26-760): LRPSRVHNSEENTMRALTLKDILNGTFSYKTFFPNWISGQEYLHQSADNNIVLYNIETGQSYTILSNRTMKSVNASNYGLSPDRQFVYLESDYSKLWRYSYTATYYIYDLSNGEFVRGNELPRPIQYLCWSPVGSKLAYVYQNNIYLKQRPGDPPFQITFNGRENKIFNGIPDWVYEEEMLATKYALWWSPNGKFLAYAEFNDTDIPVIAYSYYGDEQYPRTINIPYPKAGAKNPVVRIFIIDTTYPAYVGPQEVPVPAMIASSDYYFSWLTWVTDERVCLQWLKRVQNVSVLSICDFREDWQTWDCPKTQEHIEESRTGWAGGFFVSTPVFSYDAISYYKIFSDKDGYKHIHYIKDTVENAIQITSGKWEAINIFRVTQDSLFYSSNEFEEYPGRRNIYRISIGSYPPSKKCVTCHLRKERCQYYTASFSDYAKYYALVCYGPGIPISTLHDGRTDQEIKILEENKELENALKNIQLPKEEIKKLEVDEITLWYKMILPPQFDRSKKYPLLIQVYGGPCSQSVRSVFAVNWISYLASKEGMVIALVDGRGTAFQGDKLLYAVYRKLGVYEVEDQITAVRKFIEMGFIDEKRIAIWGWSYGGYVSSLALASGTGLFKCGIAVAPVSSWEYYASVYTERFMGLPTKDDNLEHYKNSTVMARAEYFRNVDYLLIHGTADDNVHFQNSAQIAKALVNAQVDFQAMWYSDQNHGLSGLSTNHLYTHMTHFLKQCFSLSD
Summary of the method: as §1

| Kd [1] [nM] | IC50 [2] [nM] | IC50 [3] [nM] | Compound |
| --- | --- | --- | --- |
| 0.47 | 0.57 | 0.203 | CCCCC[C@@H]1NC(=O)[C@H](Cc2ccc(O)cc2)NC(=O)[C@H](Cc2ccccc2)N(C)C(=O)CNC(=O)CNC(=O)[C@H]2CCCN2C(=O)[C@H](CC(=O)O)NC(=O)[C@H](CCCNC(=O)N2CCN(CC(=O)O)CC2)NC(=O)CNC(=O)[C@H](Cc2c[nH]c3ccccc23)NC1=O [Example A4, Gly-Gly-NMePhe-Tyr-Ahp-Trp-Gly-Orn(COPipzaa)-Asp-D-Pro, TFA salt] (cyclo([Ahp(2)]WG[Orn]([CO-Piperazinyl(4-CH2COOH)])D[dP]GG[NMeF]Y)) |
| < 0.02 | 0.019 | 0.006 | Gly-Gly-NMePhe-F(4amPEG2NHNODAGA-Ga)-hS(Pr)-Trp-Gly-K(COpipzaa)-Asp-D-Pro (cyclo(GG[NMeF][F(4amPEG2NHNODAGA-Ga)][hS(Pr)]WGK(COpipzaa)D[dP]); also: Ga complex) [Example C40] |
| 0.48 | 0.6 | 0.181 | CCCCC[C@@H]1NC(=O)[C@H](Cc2ccc(OCCN)cc2)NC(=O)[C@H](Cc2ccccc2)N(C)C(=O)CNC(=O)[C@H](CCO)NC(=O)[C@H]2CCCN2C(=O)[C@H](CC(=O)O)NC(=O)[C@H](Cc2ccc(O)cc2)NC(=O)CNC(=O)[C@H](Cc2c[nH]c3ccccc23)NC1=O [Example A47, hSer-Gly-NMePhe-F(4OEtNH2)-Ahp-Trp-Gly-Tyr-Asp-D-Pro, TFA salt] (cyclo([AEF][Ahp(2)]WGYD[dP][hSer]G[NMeF])) |
| 0.45 | 0.48 | 0.111 | CCCCC[C@@H]1NC(=O)[C@H](Cc2ccc(O)cc2)NC(=O)[C@H](Cc2ccccc2)N(C)C(=O)CNC(=O)[C@H](CCCCN)NC(=O)[C@H]2CCCN2C(=O)[C@H](CC(=O)O)NC(=O)[C@H](Cc2ccc(O)cc2)NC(=O)CNC(=O)[C@H](Cc2c[nH]c3c(F)cccc23)NC1=O [Example A23, Lys-Gly-NMePhe-Tyr-Ahp-W(7F)-Gly-Tyr-Asp-D-Pro, TFA salt] (cyclo([Ahp(2)][Trp(7-F)]GYD[dP]KG[NMeF]Y)) |
| 0.033 | 0.024 | 0.01 | Gly-Gly-NMePhe-F4(amBAlaDOTALu)-Ahp-Trp-Gly-Tyr-Asp-D-Pro (cyclo(GG[NMeF][F4(amBAlaDOTALu)][Ahp(2)]WGYD[dP]); also: Lu complex) [Example C10] |
| 0.102 | 0.072 | 0.026 | Gly-Gly-NMePhe-F(4OEtNHDOTA-Lu)-Ahp-Trp-Gly-K(COpipzaa)-Asp-D-Pro (cyclo(GG[NMeF][F(4OEtNHDOTA-Lu)][Ahp(2)]WG[K(COpipzaa)]D[dP]); also: Lu complex of DOTA) [Example C27] |
| < 0.023 | 0.06 | 0.019 | Glu-Gly-NMePhe-F(4amPEG2NHDOTA-Ga)-hS(Pr)-Trp-Gly-K(COpipzaa)-Asp-D-Pro (cyclo(EG[NMeF][F(4amPEG2NHDOTA-Ga)][hS(Pr)]WG[K(COpipzaa)]D[dP]); also: Ga complex of DOTA) [Example C45] |
